The supplement of paper PMC7125110
± gives the standard error. For some of these results: This sample holds only a part of the variants without activity.

B1: glmS ribozyme (parent)
chain: AUAAAAGCGCCAGAACUACAGAAAUGUAGUUGACGAGGAGGAGGUUUAUCGAAUUUUCGGCGGAUGCCUCCAAA

Tests used:
Details in all cases: with glucosamine-6-phosphate
[1] = variants of: B1; test: kcat; higher = faster cleavage; RNA array
How it was run: (§1)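 kobs was derived by fitting per-tile medians to one- or two-exponential decays after normalising signals to baseline and to non-cleaving reference variants. Those signals came from barcoded ribozyme variants transcribed in situ by E. coli RNA polymerase on sequenced MiSeq chips, followed through a hybridised Cy3 probe at 37 °C and imaged over ~14 h. Glucosamine-6-phosphate (40 μM to 10 mM) in HEPES/KCl/Mg(OAc)2 buffer was flowed in. Weighted Michaelis–Menten fits across concentrations then gave kcat and KM.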

[2] = variants of: B1; test: KM; higher = weaker cofactor use; RNA array
How it was run: as §1

[3] = variants of: B1; test: self-cleavage kobs at 40 uM GlcN6P; higher = faster cleavage; RNA array
How it was run: as §1

[4] = variants of: B1; test: self-cleavage kobs at 640 uM GlcN6P; higher = faster cleavage; RNA array
How it was run: as §1

[5] = variants of: B1; test: self-cleavage kobs at 2500 uM GlcN6P; higher = faster cleavage; RNA array
How it was run: as §1

[6] = variants of: B1; test: self-cleavage kobs at 10000 uM GlcN6P; higher = faster cleavage; RNA array
How it was run: as §1

[7] = variants of: B1; test: self-cleavage kobs at 160 uM GlcN6P; higher = faster cleavage; RNA array
How it was run: as §1

Variant	kcat [1] [s⁻¹]	KM [2] [µM]	self-cleavage kobs at 40 uM GlcN6P [3] [s⁻¹]	self-cleavage kobs at 640 uM GlcN6P [4] [s⁻¹]	self-cleavage kobs at 2500 uM GlcN6P [5] [s⁻¹]	self-cleavage kobs at 10000 uM GlcN6P [6] [s⁻¹]	self-cleavage kobs at 160 uM GlcN6P [7] [s⁻¹]
AUAAAAGCGCCAGAACUACAGAAAUGUAGUUGACGAGGAGGAGGCUUAUCGAAUGUUCGGCGGAUGCCUCCAAA [U45C U55G]	0.0035 ± 0.0008	2770 ± 960	6.05e-05 ± 8.1e-06	0.000502 ± 9.9e-05	0.00165 ± 0.00048	0.00283 ± 0.00033	
AUAAAAGCGCCAGAACUACAGAAAUGUAGUUGACGAGGAGGAGGGUUAUCGUAUUUUCGGCGGAUGCCUCCAAA [U45G A52U]	0.000421 ± 0.0001		< 1e-05		7.57e-05 ± 2e-05	0.000189 ± 3e-05	< 1e-05
AUAAAAGCGCCAGAACUACAGAAAUGUAGUUGACGAGGAGGAGGCUUAUCGAAUUUUCGGCGGAGGCCUCCAAA [U45C U65G]	0.000191 ± 3.7e-05	1810 ± 840		4.57e-05 ± 9.8e-06	0.000188 ± 4e-05	0.000154 ± 2e-05	
AUAAAAGCGCCAGAACUACAGAAAUGUAGUUGACGAGGAGGAGGCGUAUCGAAUUUUCGGCGGAUGCCUCCAAA [U45C U46G]	0.00122 ± 0.00043	2110 ± 1100		0.000322 ± 8.8e-05	0.000911 ± 0.00015	0.000685 ± 0.00025	7.78e-05 ± 1.5e-05
AUAAAAGCGCCAGAACUACAGAAAUGUAGUUGACGAGGAGGAGGCUUAUCGAAUUCUCGGCGGAUGCCUCCAAA [U45C U56C]	0.000492 ± 4.3e-05	5500 ± 810		5.37e-05 ± 1.2e-05	0.000149 ± 3e-05	0.000319 ± 4.5e-05	
AUAAAAGCGCCAGAACUACAGAAAUGUAGUUGACGAGGAGGAGGCUUAUCGAAUUUUCGGCGGAUGCUUCCAAA [U45C C68U]	0.00315 ± 0.00089	4960 ± 2100	3.71e-05 ± 1e-05	0.000525 ± 0.00011	0.000877 ± 0.00019	0.00218 ± 0.00028	8.24e-05 ± 1.9e-05
AUAAAAGCGCCAGAACUACAGAAAUGUAGUUGACGAGGAGGAGGGUUAUCGAAUUUUCGGCGGAUGCCUACAAA [U45G C70A]	0.000251 ± 5.4e-05			0.000111 ± 2.5e-05	0.000364 ± 0.00011	0.000215 ± 4.3e-05	
AUAAAAGCGCCAGAACUACAGAAAUGUAGUUGACGAGGAGGAGGGUUAUCGAAUUUUCGGCGGAUGCCUUCAAA [U45G C70U]	0.00681 ± 0.0021	562 ± 260	0.000542 ± 5.6e-05	0.00288 ± 0.0004	0.00473 ± 0.00096	0.0102 ± 0.0013	0.00139 ± 0.00018
AUAAAAGCGCCAGAACUACAGAAAUGUAGUUGACGAGGAGGAGGGUUAUCGAAUUUUCGGCGGAUGCCUCUAAA [U45G C71U]	0.00857 ± 0.0011	2380 ± 450	0.000147 ± 1.7e-05	0.00152 ± 0.00031	0.00519 ± 0.00062	0.00653 ± 0.0008	0.000517 ± 8.8e-05
AUAAAAGCGCCAGAACUACAGAAAUGUAGUUGACGAGGAGGAGGGUUAUCGAAAUUUCGGCGGAUGCCUCCAAA [U45G U54A]	0.00862 ± 0.0024	2110 ± 950	0.000294 ± 6.7e-05	0.00206 ± 0.00071	0.00456 ± 0.0014	0.00721 ± 0.0012	0.000437 ± 0.00014
AUAAAAGCGCCAGAACUACAGAAAUGUAGUUGACGAGGAGGAGGCUUAUCGAAUUUACGGCGGAUGCCUCCAAA [U45C U57A]	1.9e-05 ± 2.7e-06						
AUAAAAGCGCCAGAACUACAGAAAUGUAGUUGACGAGGAGGAGGCUUAUCGAAUUUCCGGCGGAUGCCUCCAAA [U45C U57C]	1.67e-05 ± 1e-06	6920 ± 1000					
AUAAAAGCGCCAGAACUACAGAAAUGUAGUUGACGAGGAGGAGGCUUAUCGAAUUUUCGGCGGAUGCCUCUAAA [U45C C71U]	0.00401 ± 0.00038	2470 ± 340	6.69e-05 ± 7.5e-06	0.000828 ± 0.00012	0.00167 ± 0.00031	0.00338 ± 0.00033	0.000236 ± 5.8e-05
AUAAAAGCGCCAGAACUACAGAAAUGUAGUUGACGAGGAGGAGGCUUAUCGAAUUUUCGGCGGAUGCCUCAAAA [U45C C71A]	0.00125 ± 0.00022	4720 ± 1500		0.00014 ± 3.9e-05	0.000744 ± 0.00031	0.000832 ± 0.00015	
AUAAAAGCGCCAGAACUACAGAAAUGUAGUUGACGAGGAGGAGGGUUAUCGAAUUUUAGGCGGAUGCCUCCAAA [U45G C58A]	0.000297 ± 2.9e-05	3170 ± 620		4.61e-05 ± 9.8e-06	0.000147 ± 2.3e-05	0.00022 ± 2.6e-05	
